Experimental data taken from the DeepSol protein solubility set.

assay: soluble on expression in E. coli; label from the status in PepcDB or PDB records

Sequence	soluble on expression in E. coli
MNPEVTVLMSVYNDKNYLSESIESILNQTFENFEFLIINDASTDGSGELLEEYSKKDKRIRLIHNKNNRGLSYSLAEGVSLAKAPWIARMDADDVSFKDRLAVQMDHVKAHSELDILGSYVIDIDDKGNELEIRKVPTTHKEIANLIWTCPFIHPTVLFKKDSIIKAGSYDRNLRRRQDYDLWFRCLEAKLKFENIDKPLLYYRSTDDYYKKNNFKVQVQQAKMGFAGARRVKAKPIAYIGITVAFIKGILPYHIRKPLSQLLKKVDPRRALEHHHHHH	soluble
MSLSENEQFSQMEAKARARMKERGVEVSDIAELVFFLQKKYHPDLTIDECTLNVNRVLAKREVQNAILTGIELDVLAEQKKLSEPLQTMLEIDESLYGVDEVLAFSIVNIYGSIGFTNYGYIDKEKPGILKRLNDKSTGECHTFLDDIVGAISAAASSRLAHRARHTEEGGSHHHHHH	soluble
MGSDKIHHHHHHMENYTHWFYLESYTFLFYSKNQYVIYNTLNSTYIDCSLYGKTINTVLSILHNTNKTYCVGIYEYQLRDSQFTEFIKKIRNTFSGDIIKNIRGIPPFISKPILRILHHPNNPKTKEYNLLGENALFHLHEVTFYLENQGFDLNPMYKDCYKQFLYPTYTEKQKLSHAKYLEIIEQLSICQIDKINIIPATIEKKELFSYLLSLSRQYSIKTQIILPYKKYNKEDLKQLLTNPQFSIMIMVHLPVDYEELNSYINLFNEYNITWSLIASNKNDVIFLSKNNLGKFTNVDYIPWYTGDNMDFFKEYIYNDFKDIIEQKNTKQHIFRKQILNDNLFGKLTIFPTGEVYSNVNFPTIGNIQDQKLSEIVYSEIENYFKPWFFTRDYVSCKNCVNKYLCPSISNYEIVANEYNMCYLNQ	not soluble
MEKVMKCHRVEELLQLLEPEWHKDSELNLIQFLLKLAQEAGYQGALEDLTDDVLIYHLKMRNSAKDAVIPGLKKDYEDDFKTAILRARGIIK	not soluble
MGSDKIHHHHHHMRKISVFDTTLRDGEQSAGVNLNFEEKMEIAKQLERLGVDIIEAGFPASSQGDFQSVKAIAETVKGSSVTGLARSVQKDIDAAWEALKSAEEPRIHLFIATSPIHMEHKLRMTPEQVIEKAVESVKYAASRFKHVQWSAEDASRSDFPFLAQIIEAVIQAGATVINLPDTVGYTTPQEIKRMFQYMKQNVPSIDKVSLSTHNHDDLGMAVANSLAAIQGGADQVECTINGIGERAGNASLEEIAVALNIRKDHYETETGLILKEIKRTSSLVSKLTGMVVPNNKAVVGANAFAHESGIHQDGVLKNKQTYEIITPEMVGVSSNSMVLGKHSGRHAFKTKVQELGFTGTDEQLNNIFKAFKDLADKKKEITEDDLFALMTEQTVGGETNHYELQTLQVNYGSNLTNTATITMKLPSGEVAEEAATGSGSVEAIYNTLERLLDAPVKLLDYRIQSITGGRDALADVYVQMDYQGVVSSGRGTAHDVLEASAKAYLNAVNRTINRKKYAEVYGSKVEV	not soluble
MGSDKIHHHHHHMAKKHEPFVIGDVSVAAGTQQSVKLPAAKLYNDTPMDLHVEVFHGTKAGPVLLVCAAIHGDELNGIEICRRLLGRVNAKTLTGTLLIVPIVNVFGFIQQSRYLPDRRDLNRCFPGSAKGALASRLAHLFSSILVKRATHIVDLHTGAIHRDNLPQIRCDTDDEVMLDMANAFGAPVIMSSKAREGSMRGYANSLNIPCILYEAGEALRFSDMSIKSGVNGVINVMRCLSMTKGKIKTKSTSVNASRSYWVRSESDGLVNIKLKLGERVSKGQVLANIVNPLGGEPSPLLAPTDGIIIGNSNIPVTNEGEALFHIAQFSGDEIEIINDNLDDFMQEYA	not soluble
MVLSIERKRAIVQYVKSRKIATVSELAKHFEVHEATIRRDLTSLEKDKKLKRTHGGVMIEEKVVSEPNWKKRSEVRYEEKQRIATLAATMVKDGDTIILDAGTTTGHIATALKDRSKLTVITNDINVASIMRFSPSKVIVTGGVIYPETFILNGMITSGTLQSIHVHKAFVTTPALDIDKGLMHYDEYLIPAKQQMLHSADEVILVTDHTKFGRISLYKYAALDEISSIITGKEIDPVLKEQFEEKGMQIYTTLEHHHHHH	soluble
